From patent publication US20260193335A1 (ZOETIS SERVICES, published 2026)
Residue numbers refer to the chain shown, from its start. In names and notes the source's numbering stands.

B1: Anti-NGF antibody of Table 3, S434G (antibody)
heavy: DVQLVESGGDLVKPGGSLRLTCVASGFTYSNYWMHWVRQAPGKGLQWVARIDPYGGGTKHNEKFKRRFTISRDNAKNTLYLQMNSLKTEDTATYYCVRSGYDYYFDVWGQGTLVTVSSASTTAPSVFPLAPSCGTTSGATVALACLVLGYFPEPVTVSWNSGALTSGVHTFPAVLQASGLYSLSSMVTVPSSRWLSDTFTCNVAHPPSNTKVDKTVRKTDHPPGPKPCDCPKCPPPEMLGGPSIFIFPPKPKDTLSISRTPEVTCLVVDLGPDDSDVQITWFVDNTQVYTAKTSPREEQFNSTYRVVSVLPILHQDWLKGKEFKCKVNSKSLPSPIERTISKAKGQPHEPQVYVLPPAQEELSRNKVSVTCLIKSFHPPDIAVEWEITGQPEPENNYRTTPPQLDSDGTYFVYSKLSVDRSHWQRGNTYTCSVSHEALHGHHTQKSLTQSPGK
light: EIQMTQSPSSLSASPGDRVTITCRASENIYSFLAWYQQKPGKVPKLLIYNANTLAEGVPSRFSGSGSGTDFTLTISSLEPEDAATYYCQHHFGTPFTFGSGTKLEIKRSDAQPSVFLFQPSLDELHTGSASIVCILNDFYPKEVNVKWKVDGVVQNKGIQESTTEQNSKDSTYSLSSTLTMSSTEYQSHEKFSCEVTHKSLASTLVKSFQRSECQRE
B2: Anti-NGF antibody of Table 3, S434I (antibody)
heavy: B1 heavy with G440I
light: B1 light
B3: Anti-NGF antibody of Table 3, S434K (antibody)
heavy: B1 heavy with G440K
light: B1 light
B4: Anti-NGF antibody of Table 3, S434L (antibody)
heavy: B1 heavy with G440L
light: B1 light
B5: mAb6 anti-TGFβ antibody ZTS-120-6, wildtype (antibody)
heavy: QVLLVQSGADVRKPGASVKIFCKASGYTFSSNVMHWVRQTPAQGFEWMGSVIPIVDIATYARRFQGRLVLTADTSTNTAYMELRSLKSADTAVYYCARTLGLVLDAMDYWGQGSLVTVSSASTTAPSVFPLAPSCGTTSGATVALACLVLGYFPEPVTVSWNSGALTSGVHTFPAVLQASGLYSLSSMVTVPSSRWLSDTFTCNVAHPPSNTKVDKTVRKTDHPPGPKPCDCPKCPPPEMLGGPSIFIFPPKPKDTLSISRTPEVTCLVVDLGPDDSDVQITWFVDNTQVYTAKTSPREEQFNSTYRVVSVLPILHQDWLKGKEFKCKVNSKSLPSPIERTISKAKGQPHEPQVYVLPPAQEELSRNKVSVTCLIKSFHPPDIAVEWEITGQPEPENNYRTTPPQLDSDGTYFVYSKLSVDRSHWQRGNTYTCSVSHEALHSHHTQKSLTQSPGK
light: DIVLTQPPSLSVNLGQTARITCRASQSLGSSYLAWYQQKPGQAPKLVTYGASSRAPGIPDRFSGTNSGITATLTISGARAEDEADYYCQQYADSPITFGQGTKLEIK
notes: also called mAb6 ID No. 22
B6: mAb6 anti-TGFβ antibody ZTS-120-8, wildtype (antibody)
heavy: B5 heavy with S30T, M34I, H35S, S50G, T59N, R62Q, Q65K, R98S
light: DIVMTQSPGSLAGSPGQQVTMNCRASQSLGSSYLAWYQQKPGQHPELLIYGASSRAPGVPDRFSGSGSGTDFTLTISNLQAEDVANYYCQQYADSPITFGQGTKLEIK
notes: also called mAb6 ID No. 26
B7: mAb6 anti-TGFβ antibody ZTS-120-7, wildtype (antibody)
heavy: DVQLVESGGDLVKPGGSLRLTCVASGYTFSSNVMHWVRQAPGKGLQWVAYVIPIVDIAYYADSVKGRFTISIDNSKNTLYLQMNSLKTEDTATYYCARTLGLVLDAMDYWGQGTLVTVSSASTTAPSVFPLAPSCGTTSGATVALACLVLGYFPEPVTVSWNSGALTSGVHTFPAVLQASGLYSLSSMVTVPSSRWLSDTFTCNVAHPPSNTKVDKTVRKTDHPPGPKPCDCPKCPPPEMLGGPSIFIFPPKPKDTLSISRTPEVTCLVVDLGPDDSDVQITWFVDNTQVYTAKTSPREEQFNSTYRVVSVLPILHQDWLKGKEFKCKVNSKSLPSPIERTISKAKGQPHEPQVYVLPPAQEELSRNKVSVTCLIKSFHPPDIAVEWEITGQPEPENNYRTTPPQLDSDGTYFVYSKLSVDRSHWQRGNTYTCSVSHEALHSHHTQKSLTQSPGK
light: B5 light
notes: also called mAb6 ID No. 24
B8: mAb6 anti-TGFβ antibody ZTS-120-3, wildtype (antibody)
heavy: QVLLVQSGAEVRTPGASVKIFCKASGYGFTSNVISWVRQSPAQGLEWMGGVIPIVDIANYAQRFKGRLTLTADTSTDTAYMELSSLRSADTAMYYCASTLGLVLDAMDYWGQGTLVTVSSASTTAPSVFPLAPSCGTTSGATVALACLVLGYFPEPVTVSWNSGALTSGVHTFPAVLQASGLYSLSSMVTVPSSRWLSDTFTCNVAHPPSNTKVDKTVRKTDHPPGPKPCDCPKCPPPEMLGGPSIFIFPPKPKDTLSISRTPEVTCLVVDLGPDDSDVQITWFVDNTQVYTAKTSPREEQFNSTYRVVSVLPILHQDWLKGKEFKCKVNSKSLPSPIERTISKAKGQPHEPQVYVLPPAQEELSRNKVSVTCLIKSFHPPDIAVEWEITGQPEPENNYRTTPPQLDSDGTYFVYSKLSVDRSHWQRGNTYTCSVSHEALHSHHTQKSLTQSPGK
light: EIQMTQSPSSLSASPGDRVTITCRASQSLGSSYLAWYQQKPGKVPKLLIYGASSRAPGVPSRFSGSGSGTDFTLTISSLEPEDAATYYCQQYADSPITFGQGTKLEIK
notes: also called mAb6 ID No. 16
B9: mAb6 anti-TGFβ antibody ZTS-120-5, wildtype (antibody)
heavy: B7 heavy
light: B8 light
notes: also called mAb6 ID No. 20
B10: mAb6 anti-TGFβ antibody ZTS-120-4, wildtype (antibody)
heavy: B5 heavy
light: B8 light
notes: also called mAb6 ID No. 18
B11: mAb6 anti-TGFβ antibody ZTS-120-9, wildtype (antibody)
heavy: B7 heavy
light: B6 light
notes: also called mAb6 ID No. 28

The binders below were run against T1, Feline FcRn (complex of FcRn-α subunit and β-microglobulin, C-terminal His tag) (feline, UniProt A0ABI7ZNY9 23-296; Q5MGS7 21-118) (assay: SPR Biacore, FcRn amine-coupled on CM5, pH 7.2).
T1 construct: treated here as one molecule
Description: (§1) Feline FcRn was isolated, prepared and mutant Fc IgGs were assayed against feline FcRn according to Strietzelg et. al. Standard RACE PCR was used to amplify feline FcRn-α subunit and β-microglobulin. FcRn-α subunit and β-microglobulin were co-transfected into HEK 293 cells and the FcRn complex was purified by IMAC affinity purification via the c-terminal His tag. KD's were measured by Biacore 3000 or Biacore T200 (GE Healthcare, Pittsburgh, PA, USA) using a CM5 sensor chip.
(§2) FcRn was immobilized on the surface of the sensor using the standard amine immobilization method to reach the desired surface density. HBS-EP was used as the immobilization running buffer and 10 mM MES; 150 mM NaCl; 0.005% Tween20; 0.5 mg/mL BSA; pH6 and pH7.2 and PBS; 0.005% Tween20; 0.5 mg/mL BSA; pH7.4 were used for method running buffers and titrations. Fc mutant IgGs were flowed over receptor surfaces and affinity was determined using Scrubber2 software analysis (BioLogic Software Pty, Ltd., Campbell, Australia) or T200 evaluation software (Table 2). Blank runs containing buffer only were subtracted out from all runs. Flow cells were regenerated using 50 mM Tris pH8. Runs were performed at 15° C.
B1 showed a Kd of 21.6 nM.
In the case of B2, the Kd is reported as 18.1 nM.
For B3, the Kd was 5.06 nM.
B4 showed a Kd of 6.57 nM.

What follows are binders tested against T1, Feline FcRn (complex of FcRn-α subunit …) (assay: SPR Biacore, FcRn amine-coupled on CM5, pH 6).
Description: as §1, §2
B1 showed a Kd of 9.58 nM.
For B2, the Kd was 14.4 nM.
Binder B3 has a Kd of 6.76 nM.
In the case of B4, the Kd is reported as 8.67 nM.

The binders below were run against T1, Feline FcRn (complex of FcRn-α subunit …) (assay: SPR Biacore, FcRn on sensor, pH 6; pH 6).
Description: as §1, with “As discussed in the above Example section, Feline” for “Feline”
FcRn was captured on the surface of the sensor using a modified SA capture method. 10 mM MES; 150 mM NaCl; 0.005% Tween20; 0.5 mg/mL BSA; pH6 was used as capture, method running buffer and titrations. 1×HBS-P, 0.5 mg/mL BSA; pH7.4 was also used for method running buffer and titrations. Fc mutant IgGs were flowed over receptor surfaces and affinity was determined using T200 evaluation software or Biacore Insight Evaluation software. Blank runs containing buffer only were subtracted out from all runs. Flow cells were regenerated using 50 mM Tris pH8 or pH9. Runs were performed at 15° C.
For B5, the Kd was 14.3 nM.
In the case of B6, the Kd is reported as 35.7 nM.
B7 showed a Kd of 30.2 nM.
B8 showed a Kd of 20.5 nM.
For B9, the Kd was 31.6 nM.
B10 showed a Kd of 19.6 nM.
For B11, the Kd was 44.3 nM.
